# Patent US20250195629A1, “SITE-SPECIFIC BRAIN THERAPEUTICS” (William Marsh Rice University, priority 2023, published 2025)
# B1: AADC-IKVAV: aromatic-L-amino-acid decarboxylase (AADC) protein fused with short peptide IKVAV (SEQ ID NO: 23); CDS SEQ ID NO: 21 (protein)
# chain: MRGSHHHHHHGMASMTGGQQMGRDLYDDDDKDPMNASEFRRRGKEMVDYMANYMEGIEGRQVYPDVEPGYLRPLIPAAAPQEPDTFEDIINDVEKIIMPGVTHWHSPYFFAYFPTASSYPAMLADMLCGAIGCIGFSWAASPACTELETVMMDWLGKMLELPKAFLNEKAGEGGGVIQGSASEATLVALLAARTKVIHRLQAASPELTQAAIMEKLVAYSSDQAHSSVERAGLIGGVKLKAIPSDGNFAMRASALQEALERDKAAGLIPFFMVATLGTTTCCSFDNLLEVGPICNKEDIWLHVDAAYAGSAFICPEFRHLLNGVEFADSFNFNPHKWLLVNFDCSAMWVKKRTDLTGAFRLDPTYLKHSHQDSGLITDYRHWQIPLGRRFRSLKMWFVFRMYGVKGLQAYIRKHVQLSHEFESLVRQDPRFEICVEVILGLVCFRLKGSNKVNEALLQRINSAKKIHLVPCHLRDKFVLRFAICSRTVESAHVQRAWEHIKELAADVLRAEREGGSGSSGGSGGSGGSGIKVAV
# modifications: misc_feature 1..1602 Synthetic: AADC-IKVAV
# Test system: wild-type C57BL/6J mice
# Assay: Locomotor behavior test (open field) before and after L-DOPA
# Format: in vivo, mouse
# Excerpt: RAID neuromodulation provides an approach for precise modulation of brain activity through regionally activated interstitial drug delivery. It should be noted, site-specific, noninvasive methods hold promise for controlled behavioral modulation. As such, to evaluate long-term efficacy of RAID neuromodulation, RAID's ability to sustain behavioral control over time is described herein. In some embodiments, to measure effects of RAID neuromodulation on behavior, targeting dorsal striatum with two FUS sites are be analyzed. In some instances, effects of RAID neuromodulation by targeting dorsal striatum with two FUS sites can be used to increase an amount of on-target delivery of AADC in the CPu region that contains dopamine-responsive cells. […] With this in mind, in certain embodiments, a pair of AADC-IKVAV (SEQ ID NO: 23) and L-DOPA may be used to evaluate whether RAID can induce similar behavioral changes after the prodrug administration. In some embodiments, AADC-IKVAV (SEQ ID NO: 23) is delivered via FUS-BBBO to two sites in the left striatum region of wild type mice. FIG. 11a illustrates embodiments of RAID control of behavior through targeted neuromodulation including an experimental scheme for RAID-induced control of motor behavior by targeted activation of dopamine neurons, in accordance with embodiments described herein. As illustrated, FUS in two sites of the left striatum are used to deliver AADC-IKVAV (SEQ ID NO: 23) (250 mg/kg, i.v. injection) or PBS buffer control. After 2 days, open field test (OFT) was performed twice before and after a single injection of the prodrug L-DOPA (2 mg/kg, i.p.), allowing 200 minutes between each test. The locomotor activity was recorded for 15 min after a habituation period of 5 min in each test. After the testing, mice were perfused 2 h after L-DOPA administration for histologic examination of AADC-IKVAV (SEQ ID NO: 23) retention and neuron activation (c-Fos+) to confirm localize neuromodulation. As schematically depicted in FIG. 11a, the AADC protein fused with a short peptide IKVAV (SEQ ID NO: 23) (e.g., AADC-IKVAV (SEQ ID NO: 23)) to two sites in the left striatum of wild-type mice using FUS-BBBO. After 46 hours, the mice underwent an open field (OF) test to assess baseline locomotor activity over a 20-minute period. The mice were then returned to their home cages and, 100 minutes later, received an intraperitoneal injection of L-DOPA (2 mg/kg) before undergoing another OF test.
# Locomotor behavior test—Two groups of mice underwent FUS-BBBO targeting two sites at left striatum immediately after intravenous injection of recombinant protein AADC-IKVAV (SEQ ID NO: 23) (n=14 mice for FUS+AADC-IKVAV group, 20 mg/mL, 250 mg/kg) or equivalent volume of PBS buffer (n=11 mice for FUS alone group). Another group without FUS-BBBO procedure served as wild type control (n=12 mice for WT group). After 46 h, the first session of behavioral test was performed in a custom-made non-transparent open field box (30.5 cm×30.5 cm) as a baseline. Each mouse was individually placed into the apparatus center with a light intensity and background noise at ˜320 lux and 46 dB (400 Hz peak), respectively. After a habituation period of 5 min, the locomotor activity of a freely-moving mouse was recorded for 15 min by a video tracking system (Stoelting Co.) consisting of an overhead camera connected to a computer with Any-Maze software. Behavioral measures include total distance traveled, average and maximum speed, freezing time and episodes, mobile/immobile time and episodes, clockwise and counterclockwise rotations and head turn angles. The mouse was returned to the home cage immediately after testing. After 90 min, the mice were intraperitoneally injected with carbidopa (25 mg/kg) and 10 min later L-DOPA (2 mg/kg) as described above. A second session of open field test 100 min after L-DOPA injection.
# [1] = FUS+AADC-IKVAV alone, 46 h, vs WT and FUS alone
Molecule,"decrease of clockwise (contralateral) rotation after L-DOPA (FUS alone group, L-DOPA 2 mg/kg i.p.)","change in episodes of mobility after L-DOPA (control groups, FUS alone or wild type, L-DOPA 2 mg/kg i.p.)","reduction of counter-clockwise (ipsilateral) rotations after L-DOPA (control mice with FUS alone or no treatment, L-DOPA 2 mg/kg i.p.)","decrease of clockwise (contralateral) rotation after L-DOPA (untreated wild-type group, L-DOPA 2 mg/kg i.p.)",counter-clockwise rotations before L-DOPA administration [1],number of mobile episodes before L-DOPA administration [1],"clockwise (contralateral) rotation after L-DOPA (RAID treatment: FUS + AADC-IKVAV, L-DOPA 2 mg/kg i.p.)","decrease in mobile episodes after L-DOPA (RAID: FUS two sites left striatum + AADC-IKVAV 250 mg/kg i.v., 2 days, L-DOPA 2 mg/kg i.p.)","reduction of counter-clockwise (ipsilateral) rotations after L-DOPA (full RAID treatment: FUS + AADC-IKVAV 250 mg/kg i.v., L-DOPA 2 mg/kg i.p.)"
"N[C@@H](Cc1ccc(O)c(O)c1)C(=O)O [L-DOPA, reference compound]",44±13%,no significant change,not in the control mice,52±8%,,,,,
B1,,,,,no effect,no effect,prevented that decrease,38±8%,63±10%
